8 molecules from patent US20200407447A1 (CEINGEBIOTECNOLOGIE AVANZATE FRANCO SALVATORE SCARL, published 2020) can be followed below.

Test [1] deals with T1, human LAG-3 on activated hPBMCs (human, UniProt P18627 23-525).
T1 construct: whole, on cells; also called cognate receptor expressed on hPBMCs
T1 sequence (looked up): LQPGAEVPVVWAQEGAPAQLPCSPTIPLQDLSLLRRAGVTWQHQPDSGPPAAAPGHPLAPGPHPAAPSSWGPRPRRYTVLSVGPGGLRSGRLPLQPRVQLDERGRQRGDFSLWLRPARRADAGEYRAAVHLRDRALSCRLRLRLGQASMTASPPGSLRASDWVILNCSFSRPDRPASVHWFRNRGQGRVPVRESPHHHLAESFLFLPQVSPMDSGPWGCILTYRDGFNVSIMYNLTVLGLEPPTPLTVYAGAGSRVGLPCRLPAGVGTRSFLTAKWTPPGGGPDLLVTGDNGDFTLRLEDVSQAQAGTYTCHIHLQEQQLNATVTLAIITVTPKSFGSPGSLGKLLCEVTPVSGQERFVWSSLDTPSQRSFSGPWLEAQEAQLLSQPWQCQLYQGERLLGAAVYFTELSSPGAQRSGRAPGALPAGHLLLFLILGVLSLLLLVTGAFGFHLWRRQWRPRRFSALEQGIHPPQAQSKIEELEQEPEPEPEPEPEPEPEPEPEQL
Briefly: cell ELISA on activated hPBMCs (apparent Kd, legend paragraph 26). On the procedure:
(§1) FIG. 2: Binding affinity of the selected antibodies for lymphocytes. The ELISA assays were performed with mAbs used at increasing concentrations (7.5 nM, 25 nM, 50 nM, 100 nM) on activated hPBMCs (black curves) or untreated hPBMCs (grey curves).
(§2) Plates were then centrifuged, cell pellets were washed with PBS and incubated with HRP-conjugated anti-human IgG goat polyclonal antibody for 1 hour at room temperature. Following additional washes in PBS 1×, TMB reagent was added for 10 min before quenching with an equal volume of 1N HCl. Absorbance at 450 nm was measured by the Envision plate reader (Perkin Elmer, Waltham, Mass., USA).

For test [2], the target named is T2, human LAG-3/Fc recombinant chimeric protein (R&D Systems) (human, UniProt P18627 23-450).
T2 construct: Bought from R&D Systems; also called rhLAG-3; recombinant protein/Fc
T2 sequence (looked up): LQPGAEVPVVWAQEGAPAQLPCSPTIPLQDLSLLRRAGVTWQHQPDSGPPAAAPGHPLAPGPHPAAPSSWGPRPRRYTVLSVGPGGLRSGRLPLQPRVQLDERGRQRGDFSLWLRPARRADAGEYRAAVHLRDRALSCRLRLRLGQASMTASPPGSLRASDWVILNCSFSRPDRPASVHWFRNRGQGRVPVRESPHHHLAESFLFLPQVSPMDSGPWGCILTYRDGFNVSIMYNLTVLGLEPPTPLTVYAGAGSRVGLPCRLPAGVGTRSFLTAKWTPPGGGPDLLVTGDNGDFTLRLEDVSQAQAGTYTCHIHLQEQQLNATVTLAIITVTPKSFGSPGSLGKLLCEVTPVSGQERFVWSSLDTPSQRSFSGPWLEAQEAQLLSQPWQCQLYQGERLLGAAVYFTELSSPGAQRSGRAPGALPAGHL
Nature of the test: ELISA on coated recombinant LAG-3/Fc, mAb at increasing concentrations (apparent Kd, legend paragraph 26). On the procedure:
as §1
(§3) To confirm the binding specificity of the purified mAbs, ELISA assays were performed on chimeric proteins (coated at 5 μg/ml), tumor cells (PD-L1-positive breast cancer MDA-MB-231 cells or PD-L1-negative breast cancer MCF7), and untreated or activated hPBMCs. The ELISA assays on coated chimeric protein were performed by coating Nunc™ flat-bottom 96-well plates (Fisher Scientific, Thermo Fisher Scientific) with 5 μg/ml […], […] and rhLAG-3 recombinant proteins in a solution of 0.05 M NaHCO₃ for 72 hours at 37° C. […] After extensive washes with PBS, the plates were incubated with (HRP)-conjugated anti-human IgG (Fab′)2 goat monoclonal antibody (Abcam, Cambridge, UK) for 1 hour, washed again and incubated with TMB reagent for 10 min before quenching with an equal volume of 1N HCl.

For test [3], the target named is T3, human PD-1 on activated hPBMCs (human, UniProt Q15116 25-288).
T3 construct: whole, on cells; also called cognate receptor expressed on hPBMCs
Briefly: cell ELISA on activated hPBMCs (apparent Kd, legend paragraph 26) [continued]. Here is the method: as §1, §2

Test [4] deals with T4, human PD-1/Fc recombinant chimeric protein (R&D Systems) (human, UniProt Q15116 25-167).
T4 construct: Bought from R&D Systems; also called rhPD-1; recombinant protein/Fc
Nature of the test: ELISA on coated recombinant PD-1/Fc, mAb at increasing concentrations (apparent Kd, legend paragraph 26) [continued]. On the procedure: as §1, §3

Test [5] deals with T5, human PD-L1 on cells (activated hPBMCs; MDA-MB-231 tumor cells) (human, UniProt Q9NZQ7 19-290).
T5 construct: whole, on cells; also called PD-L protein
Nature of the test: flow cytometry on hPBMCs activated with anti-CD3/CD28 beads, MFI against IgG concentration. Here is the method: Human PBMCs isolated from healthy donors were activated with anti-CD3/CD28 beads to stimulate PD-L1 expression.
The human peripheral blood mononuclear cells (hPBMCs) isolated from healthy donors were thawed in RPMI 1640 medium (Gibco), supplemented with 2 mM L-glutamine, 10% (v/v) CTL wash supplement (CTL, Shaker Heights, Ohio, USA), 100 U/ml Benzonase (Merck Millipore, Burlington, Mass., United States). After centrifugation at 1200 rpm for 10 min, they were resuspended in complete RPMI medium supplemented with 10% (v/v) heat-inactivated fetal bovine serum (FBS, Sigma), 2 mM L-glutamine, 100 U/ml penicillin and 100 µg/ml streptomicin (Gibco), HEPES 10 mM (Gibco). After resting for 16 h at 37° C. in a humidified atmosphere with 5% CO2, hPBMCs were counted, resuspended at a concentration of 10\hat{ }6 viable cells/ml in complete RPMI medium (as above) and activated with Dynabeads Human T-Activator CD3/CD28 (Gibco), 25 μl beads/10\hat{ }6 viable cells. 24 h post activation, the cells were centrifuged and plated at 4×10\hat{ }5 cells/well in PBS in a 96 well plate with round bottom. After one wash in PBS, they were incubated with 50 μl LIVE/DEAD™ Fixable Violet Dead Cell Stain (Invitrogen) for 30 min at +4° C. and washed once again.

The target in test [6] is T5, human PD-L1 on cells (activated hPBMCs; …). Nature of the test: cell ELISA on activated hPBMCs (apparent Kd, legend paragraph 26) [continued]. On the procedure: as §1, §2
Test [7] shares this target. Nature of the test: cell ELISA on MDA-MB-231 tumor cells expressing PD-L1 (apparent Kd) [continued]. On the procedure: as §2
Test [8] addresses T6, human PD-L1/Fc recombinant chimeric protein (R&D Systems) (human, UniProt Q9NZQ7 19-239).
T6 construct: Bought from R&D Systems; also called recombinant protein/Fc
Briefly: ELISA on coated recombinant PD-L1/Fc, mAb at increasing concentrations (apparent Kd, legend paragraph 26) [continued]. On the procedure:
as §1, §3

T5 sequence (Q9NZQ7 19-290): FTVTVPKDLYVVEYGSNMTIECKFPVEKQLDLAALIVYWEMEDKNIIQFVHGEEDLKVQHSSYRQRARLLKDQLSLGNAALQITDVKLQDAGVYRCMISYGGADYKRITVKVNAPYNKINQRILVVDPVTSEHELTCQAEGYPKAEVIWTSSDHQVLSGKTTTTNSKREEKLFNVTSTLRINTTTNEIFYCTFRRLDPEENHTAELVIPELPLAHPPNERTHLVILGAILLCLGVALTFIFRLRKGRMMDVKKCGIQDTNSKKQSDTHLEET
T4 sequence (Q15116 25-167, change not shown): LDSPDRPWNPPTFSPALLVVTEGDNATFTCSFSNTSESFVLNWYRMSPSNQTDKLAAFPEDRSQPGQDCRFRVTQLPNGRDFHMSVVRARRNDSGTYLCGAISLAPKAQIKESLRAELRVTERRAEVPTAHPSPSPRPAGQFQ
T3 sequence (Q15116 25-288): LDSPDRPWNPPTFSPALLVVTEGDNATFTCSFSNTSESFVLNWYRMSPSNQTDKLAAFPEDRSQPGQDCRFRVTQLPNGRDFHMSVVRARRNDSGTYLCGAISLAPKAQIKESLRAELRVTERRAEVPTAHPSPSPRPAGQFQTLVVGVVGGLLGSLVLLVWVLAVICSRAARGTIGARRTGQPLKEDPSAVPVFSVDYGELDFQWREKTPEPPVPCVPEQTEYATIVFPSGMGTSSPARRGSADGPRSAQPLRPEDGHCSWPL
T6 sequence (Q9NZQ7 19-239, change not shown): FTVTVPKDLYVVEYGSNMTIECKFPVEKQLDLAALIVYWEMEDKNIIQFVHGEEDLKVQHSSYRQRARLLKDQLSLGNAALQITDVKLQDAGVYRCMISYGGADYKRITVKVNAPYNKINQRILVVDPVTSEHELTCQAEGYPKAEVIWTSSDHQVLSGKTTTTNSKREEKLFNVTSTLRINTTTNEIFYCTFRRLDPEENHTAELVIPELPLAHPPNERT

B1: LAG-3_D (antibody, V domains shown)
VH: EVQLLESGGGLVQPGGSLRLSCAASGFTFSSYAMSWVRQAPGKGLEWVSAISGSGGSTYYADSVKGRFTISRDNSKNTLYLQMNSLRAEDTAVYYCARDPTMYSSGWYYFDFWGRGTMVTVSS
VL: ALSYVLTQPPSVSEAPRQRVTISCSGSSSNIGNNAVNWYQQLPGKAPKLLIYYDDLLPSGVSDRFSGSKSGTSASLAISGLQSEDEADYYCATWDDSLNGQVFGTGTKLTVL
Turning to B1, the values for the Kd in test [1] and in test [2] were 19 nM and 24 nM, respectively.

B2: LAG-3_C (antibody, human IgG4, V domains shown)
VH: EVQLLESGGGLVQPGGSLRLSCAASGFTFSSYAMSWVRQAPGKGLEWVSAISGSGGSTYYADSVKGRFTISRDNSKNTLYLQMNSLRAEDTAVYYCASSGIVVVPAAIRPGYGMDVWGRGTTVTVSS
VL: AQAVLTQPSSVSGAPGQRVTISCTGSSSNIGAGYDVHWYQQLPGTAPKLLIYGNNNRPSGVPDRFSGSKSGTSASLAITGLQPEDEADYYCQSYDFGLSRVFGGGTKLTVL
notes: also called mAb LAG-3_C
For B2, the Kd in test [1] stood at 2.6 nM; in test [2], 52 nM.

B3: LAG-3_A (antibody, human IgG4, V domains shown)
VH: EVQLLESGGGLVQPGGSLRLSCAASGFTFSSYAMSWVRQAPGKGLEWVSAISGSGGSTYYADSVKGRFTISRDNSKDTLYLQMNSLRAEDTAVYYCARDGPLYDISAGFVPISYYLDYWGQGTTVTVSS
VL: AQPVLTQPPSASGTPGQRVTISCSGSFSNIGSNYVFWYQQLPGTAPKLLISGNNQRPSGVPDRFSGSKSGTSASLAISGLRSQDEADYYCATWDDSLRGWVFGGGTKLTVL
notes: also called mAb LAG-3_A
Turning to B3, the Kd in test [1] came to 6 nM; in test [2], 38 nM.

B4: PD-1_A (antibody, V domains shown)
VH: QVQLQESGPGVVKPSGTLSLTCAISGGSIGSGGSIRSTRWWSWVRQSPGKGLEWIGEIYHSGSTNYNPSLKSRVTISLDKSRNHFSLRLNSVTAADTAVYYCARQDYGDSGDWYFDLWGKGTLVTVSS
VL: AQAVLTQPSSVSGAPGQRVTISCTGSSSNIGAGYDVHWYQQLPGTAPKLLIYGNNNRPSGVPDRFSGSKSGTSASLAITGLQTEDEADYYCQSYDNSLSGEVFGGGTKVTVL
notes: also called mAb PD-1_A; anti-PD-1 antibody PD-1_A
In the case of B4, the Kd came to 0.14 nM in test [3] and 0.15 nM in test [4].

B5: PD-L1_E (antibody, V domains shown)
VH: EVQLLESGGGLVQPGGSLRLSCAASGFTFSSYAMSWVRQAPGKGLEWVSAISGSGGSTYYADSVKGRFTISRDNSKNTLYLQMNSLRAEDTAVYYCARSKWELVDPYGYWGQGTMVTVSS
VL: ANFMLTQPHSVSESPGKTITISCTRSSGSIAGNYVQWYQQRPGSAPIIVIYEDNQRPSGVPDRFSGSIDSSSNSASLTISRLKTEDEADYYCQSYEASNVVFGGGTKLTVL
notes: Tested as a mAb detected with anti-human IgG Fc
As to B5, the binding result in test [5] was “binds”.

B6: PD-L1_C (antibody, V domains shown)
VH: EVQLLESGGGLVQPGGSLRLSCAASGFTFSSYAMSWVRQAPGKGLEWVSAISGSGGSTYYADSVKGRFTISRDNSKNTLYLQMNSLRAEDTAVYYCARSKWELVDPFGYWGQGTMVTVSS
VL: ANFMLTQPHSVSESPGKTITISCTRSSGSIAGNYVQWYQQRPGSAPIIVIYEDNQRPSGVPDRFSGSIDSSSNSASLTISRLKTEDEADYYCQSYEASNVVFGGGTKLTVL
notes: as for B5
B6: the half-maximal effective concentration (EC50 (read off the curve)) in test [5] is roughly 2 nM.

B7: PD-1_B (antibody, V domains shown)
VH: QVQLVQSGAEVKKPGASVKVSCKASGYTFTSYGISWVRQAPGQGLEWMGWISAYNGNTNYAQKLQGRVTMTTDTSTSTAYMELRSLRSDDTAVYYCARDFGSGSYYDLDYWGQGTMVTVSS
VL: ANFMLTQPHSVSESPGKTVTISCTGSSGSIASNYVQWYQQRPGSAPTTVIYEDNQRPSGVPDRFSGSIDSSSNSASLTISGLKTEDEADYYCQSYDSNNHWVFGGGTKLTVL
notes: also called mAb PD-1_B
Turning to B7, the Kd in test [3] stood at 0.6 nM; in test [4] it was 0.29 nM.

B8: PD-L1_B (antibody, V domains shown)
VH: QVQLVQSGAEVKKPGSSVEVSCKVSGNTVIGYAVSWVRQAPGQGPEWMGRLIPSVGLTNYAQKFQDRLTFTADTSTSTVTMALSSLTSEDTAMYYCARDVSPAVPVSQYWGQGTLVTVSS
VL: AQSVLTQPPSVSAAPGQKVIISCSGDSFNIGSHSVSWYKQLPGSAPKLLIYENNVRPSGIPDRFSGSKSGTSATLGITGLQTRDEADYYCGAWDSSLNGHWVFGGGTQLTVL
notes: also called mAb PD-L1_B
For the molecule B8, the Kd in test [6] amounted to 0.1 nM; in test [7] it was 0.74 nM; in test [8] it was 0.46 nM.
